Measurements as given in publication PMC9338935, “Structural determinants of DNA recognition by the NO sensor NsrR and related Rrf2-type [FeS]-transcription factors” (Communications Biology, 2022).

Assays:
[1] = molecular target: the molecule itself; assay: crystal structure; [4Fe-4S]-ScNsrR dimer complexed with a 23 bp hmpA1 operator dsDNA fragment; 3.0 Å; crystallised anaerobically; space group P6_(5)
[4Fe-4S]-NsrR (ScNsrR) [2] = molecular target: T1, [4Fe-4S]-NsrR (ScNsrR) (Streptomyces coelicolor, UniProt Q9L132 1-148); assay: X-ray crystallography; [4Fe-4S] cluster; EMSA: 10 mM Tris, 54 mM KCl, 0.3% glycerol, 1.32 mM GSH, pH 7.5, on ice, ~4 nM DNA, up to ~20-fold molar excess [4Fe-4S] NsrR. Crystal complex: 50 mM Tris pH 8.0, 500 mM NaCl, 5% glycerol, 20 C, anaerobic; grown in PEG, 30 mM MgCl2, 30 mM CaCl2, MOPS/HEPES pH 8.0; conditions: protein: recombinant; chain copies: 2; blunt
T1 sequence: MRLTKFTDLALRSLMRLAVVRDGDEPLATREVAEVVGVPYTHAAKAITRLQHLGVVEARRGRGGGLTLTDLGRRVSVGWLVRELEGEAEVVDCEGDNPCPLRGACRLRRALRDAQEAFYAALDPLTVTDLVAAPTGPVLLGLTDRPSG

[4Fe-4S]-NsrR (ScNsrR) [3] = molecular target: T1, [4Fe-4S]-NsrR (ScNsrR); assay: EMSA; [4Fe-4S] cluster; EMSA: 10 mM Tris, 54 mM KCl, 0.3% glycerol, 1.32 mM GSH, pH 7.5, on ice, ~4 nM DNA, up to ~20-fold molar excess [4Fe-4S] NsrR. Crystal complex: 50 mM Tris pH 8.0, 500 mM NaCl, 5% glycerol, 20 C, anaerobic; grown in PEG, 30 mM MgCl2, 30 mM CaCl2, MOPS/HEPES pH 8.0; conditions: protein: recombinant; chain copies: 2; label: 6-FAM (from PCR primers); blunt
[4Fe-4S]-NsrR (ScNsrR) [4] = molecular target: T1, [4Fe-4S]-NsrR (ScNsrR); assay: EMSA; [4Fe-4S] cluster; essentially stoichiometric, no significant difference; EMSA: 10 mM Tris, 54 mM KCl, 0.3% glycerol, 1.32 mM GSH, pH 7.5, on ice, ~4 nM DNA, up to ~20-fold molar excess [4Fe-4S] NsrR. Crystal complex: 50 mM Tris pH 8.0, 500 mM NaCl, 5% glycerol, 20 C, anaerobic; grown in PEG, 30 mM MgCl2, 30 mM CaCl2, MOPS/HEPES pH 8.0; conditions: protein: recombinant; chain copies: 2; label: 6-FAM (from PCR primers); blunt
[4Fe-4S]-NsrR (ScNsrR) [5] = molecular target: T1, [4Fe-4S]-NsrR (ScNsrR); assay: EMSA; [4Fe-4S] cluster; no clear difference from wild type; EMSA: 10 mM Tris, 54 mM KCl, 0.3% glycerol, 1.32 mM GSH, pH 7.5, on ice, ~4 nM DNA, up to ~20-fold molar excess [4Fe-4S] NsrR. Crystal complex: 50 mM Tris pH 8.0, 500 mM NaCl, 5% glycerol, 20 C, anaerobic; grown in PEG, 30 mM MgCl2, 30 mM CaCl2, MOPS/HEPES pH 8.0; conditions: protein: recombinant; chain copies: 2; label: 6-FAM (from PCR primers); blunt

B1: [4Fe-4S]-NsrR from Streptomyces coelicolor (natural protein)
chain: MRLTKFTDLALRSLMRLAVVRDGDEPLATREVAEVVGVPYTHAAKAITRLQHLGVVEARRGRGGGLTLTDLGRRVSVGWLVRELEGEAEVVDCEGDNPCPLRGACRLRRALRDAQEAFYAALDPLTVTDLVAAPTGPVLLGLTDRPSG
notes: NsrR, NO-sensing Rrf2 family transcription factor of Streptomyces coelicolor; also called ScNsrR; [4Fe-4S]-ScNsrR
With B1 the “stoichiometry N” value [1] was 2.

B2: hmpA1 operator 23 bp (dsDNA)
DNA 1: AACACGAATATCATCTACCAATT
DNA 2: AATTGGTAGATGATATTCGTGTT
B2: binds ([4Fe-4S]-NsrR (ScNsrR) [2]).

B3: Av003 wild type hmpA1 probe (dsDNA)
DNA 1: CTAAAACGACGGCCAGTCGGGATGACGGGCGGCGGCCCCCTGAGGCCGTCGAGCTGTGGCCTAAAACACGAATATCATCTACCAATTAAGGAGTCGCTGTGCTCTCCGAACAGTCCGTTCCCGTGGTCCGAGCCGTCATAGCTGTTTCCTG
DNA 2: CAGGAAACAGCTATGACGGCTCGGACCACGGGAACGGACTGTTCGGAGAGCACAGCGACTCCTTAATTGGTAGATGATATTCGTGTTTTAGGCCACAGCTCGACGGCCTCAGGGGGCCGCCGCCCGTCATCCCGACTGGCCGTCGTTTTAG
B3: binds ([4Fe-4S]-NsrR (ScNsrR) [3]).

B4: Av007 hmpG/C probe (dsDNA)
DNA 1: CTAAAACGACGGCCAGTCGGGATGACGGGCGGCGGCCCCCTGAGGCCGTCGAGCTGTGGCCTAAAACACGAACGCCGCCTACCAATTAAGGAGTCGCTGTGCTCTCCGAACAGTCCGTTCCCGTGGTCCGAGCCGTCATAGCTGTTTCCTG
DNA 2: CAGGAAACAGCTATGACGGCTCGGACCACGGGAACGGACTGTTCGGAGAGCACAGCGACTCCTTAATTGGTAGGCGGCGTTCGTGTTTTAGGCCACAGCTCGACGGCCTCAGGGGGCCGCCGCCCGTCATCCCGACTGGCCGTCGTTTTAG
B4: binds ([4Fe-4S]-NsrR (ScNsrR) [4]).

B5: Av006 hmpA/T probe (dsDNA)
DNA 1: CTAAAACGACGGCCAGTCGGGATGACGGGCGGCGGCCCCCTGAGGCCGTCGAGCTGTGGCCTAAAACACGAATATTATTTACCAATTAAGGAGTCGCTGTGCTCTCCGAACAGTCCGTTCCCGTGGTCCGAGCCGTCATAGCTGTTTCCTG
DNA 2: CAGGAAACAGCTATGACGGCTCGGACCACGGGAACGGACTGTTCGGAGAGCACAGCGACTCCTTAATTGGTAAATAATATTCGTGTTTTAGGCCACAGCTCGACGGCCTCAGGGGGCCGCCGCCCGTCATCCCGACTGGCCGTCGTTTTAG
B5: binds ([4Fe-4S]-NsrR (ScNsrR) [4]).

B6: Av005 hmpXT2 probe (dsDNA)
DNA 1: CTAAAACGACGGCCAGTCGGGATGACGGGCGGCGGCCCCCTGAGGCCGTCGAGCTGTGGCCTAAAACACGAAAATCATTTACCAATTAAGGAGTCGCTGTGCTCTCCGAACAGTCCGTTCCCGTGGTCCGAGCCGTCATAGCTGTTTCCTG
DNA 2: CAGGAAACAGCTATGACGGCTCGGACCACGGGAACGGACTGTTCGGAGAGCACAGCGACTCCTTAATTGGTAAATGATTTTCGTGTTTTAGGCCACAGCTCGACGGCCTCAGGGGGCCGCCGCCCGTCATCCCGACTGGCCGTCGTTTTAG
B6: binds ([4Fe-4S]-NsrR (ScNsrR) [5]).

B7: Av004 hmpXT1 probe (dsDNA)
DNA 1: CTAAAACGACGGCCAGTCGGGATGACGGGCGGCGGCCCCCTGAGGCCGTCGAGCTGTGGCCTAAAACACGAATAACTTCTACCAATTAAGGAGTCGCTGTGCTCTCCGAACAGTCCGTTCCCGTGGTCCGAGCCGTCATAGCTGTTTCCTG
DNA 2: CAGGAAACAGCTATGACGGCTCGGACCACGGGAACGGACTGTTCGGAGAGCACAGCGACTCCTTAATTGGTAGAAGTTATTCGTGTTTTAGGCCACAGCTCGACGGCCTCAGGGGGCCGCCGCCCGTCATCCCGACTGGCCGTCGTTTTAG
B7: binds ([4Fe-4S]-NsrR (ScNsrR) [5]).
